# Patent CN112500481A (SHANXI PROVINCIAL PEOPLES HOSPITAL, dated 2021)
# B1: 23D52 (antibody, V domains shown)
# VH: EVQLVESGGGLVQPGGSLRLSCAASGITVSSNYMNWVRQAPGKGLEWVSVLYSGGSTDYADSVKGRFTISRDNSKNTLYLQMNSLRAEDTAVYYCARDLVVYGMDVWGQGTTVTVSS
# VL: DIQLTQSPSFLSASVGDRVTITCRASQGISSYLAWYQQTPGKAPKLLIYAASTLQSGVPSRFSGSGSGTEFTLTISSLQPEDFATYYCQQLNSYPFTFGPGTKVHIK
# notes: also called 抗人新冠病毒抗体23D52
# Columns and labels:
# 新冠病毒RBD抗原 (表达的RBD蛋白) = 新冠病毒RBD抗原 (表达的RBD蛋白) (SARS-CoV-2, UniProt P0DTC2 319-541)
# RBD-tag1 = RBD-tag1 (SARS-CoV-2, UniProt P0DTC2 319-541)
binder,measurement,setting,value
B1,EC50,新冠病毒RBD抗原 (表达的RBD蛋白),0.0299 µg/mL
same,IC50,RBD-tag1,0.111 µg/mL
